Changes are numbered by the printed parent chain. Names and notes keep the numbering of the source.
Experiments:
[1] = target: T1, Recombinant Human DLL4 (R&D Systems Cat#1506-D4/CF) (human, UniProt Q9NR61 27-524); assay: ECL multispot (MSD) assay, antigen spotted on plate; blank spot of this row 327
T1 construct: Bought recombinant protein; also called delta-like protein 4; rHuman DLL4

[2] = target: T2, rHuman HGF R/c-MET/Fc Chimera, CF (R&D Systems Cat#358-MT/CF) (human, UniProt P08581 25-932); assay: as above
T2 construct: Bought recombinant protein; also called HGF R/Fc; hepatocyte growth factor receptor; Fc part of the bought chimera not given

[3] = target: T3, rHuman CD44/Fc Chimera, CF (R&D Systems Cat#3660-CD) (human, UniProt P16070 21-220); assay: as above
T3 construct: Bought recombinant protein; Fc part of the bought chimera not given

[4] = target: T4, rHuman ErbB2/Fc Chimera, CF (R&D Systems Cat#1129-ER) (human, UniProt P04626 23-652); assay: as above
T4 construct: Bought recombinant protein; also called human epidermal growth factor 2 receptor; Fc part of the bought chimera not given

[5] = target: T5, rHuman Erythropoietin R/Fc Chimera, CF (R&D Systems Cat#963-ER) (human, UniProt P19235 25-250); assay: as above
T5 construct: Bought recombinant protein; also called EPO R; EPO R/Fc; Fc part of the bought chimera not given
T5 sequence (looked up): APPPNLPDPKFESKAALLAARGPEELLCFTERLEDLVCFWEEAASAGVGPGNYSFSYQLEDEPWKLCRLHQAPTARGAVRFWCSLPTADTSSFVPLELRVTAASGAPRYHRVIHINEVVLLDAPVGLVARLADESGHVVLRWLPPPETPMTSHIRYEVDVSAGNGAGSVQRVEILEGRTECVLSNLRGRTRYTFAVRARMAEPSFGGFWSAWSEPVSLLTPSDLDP

[6] = target: T6, rHuman P-Cadherin/Fc Chimera, CF (R&D Systems Cat#861-PC) (human, UniProt P22223 108-654); assay: as above
T6 construct: Bought recombinant protein; Fc part of the bought chimera not given

[7] = target: T7, rHuman EGF R/Fc Chimera, CF (R&D Systems Cat#344-ER) (human, UniProt P00533 25-645); assay: as above
T7 construct: Bought recombinant protein; also called epidermal growth factor receptor; Fc part of the bought chimera not given

[8] = target: T8, rHuman Notch-1/Fc Chimera, CF (R&D Systems Cat#3647-TK) (human, UniProt P46531 19-526); assay: as above
T8 construct: Bought recombinant protein; Fc part of the bought chimera not given

[9] = target: T9, rHuman IGF-1 sR, (IGF-1 sR), CF (R&D Systems Cat#391-GR) (human, UniProt P08069 31-932); assay: as above
T9 construct: Bought recombinant soluble receptor; also called insulin-like growth factor-1 soluble receptor

[10] = target: T1, Recombinant Human DLL4 (R&D Systems …); assay: ECL multispot (MSD) assay, antigen spotted on plate; blank spot of this row 278
[11] = target: T2, rHuman HGF R/c-MET/Fc Chimera, CF (R&D …); assay: as above
[12] = target: T3, rHuman CD44/Fc Chimera, CF (R&D Systems …); assay: as above
[13] = target: T4, rHuman ErbB2/Fc Chimera, CF (R&D …); assay: as above
[14] = target: T5, rHuman Erythropoietin R/Fc Chimera, CF …; assay: as above
[15] = target: T6, rHuman P-Cadherin/Fc Chimera, CF (R&D …); assay: as above
[16] = target: T7, rHuman EGF R/Fc Chimera, CF (R&D …); assay: as above
[17] = target: T8, rHuman Notch-1/Fc Chimera, CF (R&D …); assay: as above
[18] = target: T9, rHuman IGF-1 sR, (IGF-1 sR), CF (R&D …); assay: as above
[19] = target: T1, Recombinant Human DLL4 (R&D Systems …); assay: ECL multispot (MSD) assay, antigen spotted on plate; blank spot of this row 392
[20] = target: T2, rHuman HGF R/c-MET/Fc Chimera, CF (R&D …); assay: as above
[21] = target: T3, rHuman CD44/Fc Chimera, CF (R&D Systems …); assay: as above
[22] = target: T4, rHuman ErbB2/Fc Chimera, CF (R&D …); assay: as above
[23] = target: T5, rHuman Erythropoietin R/Fc Chimera, CF …; assay: as above
[24] = target: T6, rHuman P-Cadherin/Fc Chimera, CF (R&D …); assay: as above
[25] = target: T7, rHuman EGF R/Fc Chimera, CF (R&D …); assay: as above
[26] = target: T8, rHuman Notch-1/Fc Chimera, CF (R&D …); assay: as above
[27] = target: T9, rHuman IGF-1 sR, (IGF-1 sR), CF (R&D …); assay: as above
[28] = target: T1, Recombinant Human DLL4 (R&D Systems …); assay: ECL multispot (MSD) assay, antigen spotted on plate; blank spot
[29] = target: T2, rHuman HGF R/c-MET/Fc Chimera, CF (R&D …); assay: as above
[30] = target: T3, rHuman CD44/Fc Chimera, CF (R&D Systems …); assay: as above
[31] = target: T4, rHuman ErbB2/Fc Chimera, CF (R&D …); assay: as above
[32] = target: T5, rHuman Erythropoietin R/Fc Chimera, CF …; assay: as above
[33] = target: T6, rHuman P-Cadherin/Fc Chimera, CF (R&D …); assay: as above
[34] = target: T7, rHuman EGF R/Fc Chimera, CF (R&D …); assay: as above
[35] = target: T8, rHuman Notch-1/Fc Chimera, CF (R&D …); assay: as above
[36] = target: T9, rHuman IGF-1 sR, (IGF-1 sR), CF (R&D …); assay: as above

T2 sequence (P08581 25-932, change not shown): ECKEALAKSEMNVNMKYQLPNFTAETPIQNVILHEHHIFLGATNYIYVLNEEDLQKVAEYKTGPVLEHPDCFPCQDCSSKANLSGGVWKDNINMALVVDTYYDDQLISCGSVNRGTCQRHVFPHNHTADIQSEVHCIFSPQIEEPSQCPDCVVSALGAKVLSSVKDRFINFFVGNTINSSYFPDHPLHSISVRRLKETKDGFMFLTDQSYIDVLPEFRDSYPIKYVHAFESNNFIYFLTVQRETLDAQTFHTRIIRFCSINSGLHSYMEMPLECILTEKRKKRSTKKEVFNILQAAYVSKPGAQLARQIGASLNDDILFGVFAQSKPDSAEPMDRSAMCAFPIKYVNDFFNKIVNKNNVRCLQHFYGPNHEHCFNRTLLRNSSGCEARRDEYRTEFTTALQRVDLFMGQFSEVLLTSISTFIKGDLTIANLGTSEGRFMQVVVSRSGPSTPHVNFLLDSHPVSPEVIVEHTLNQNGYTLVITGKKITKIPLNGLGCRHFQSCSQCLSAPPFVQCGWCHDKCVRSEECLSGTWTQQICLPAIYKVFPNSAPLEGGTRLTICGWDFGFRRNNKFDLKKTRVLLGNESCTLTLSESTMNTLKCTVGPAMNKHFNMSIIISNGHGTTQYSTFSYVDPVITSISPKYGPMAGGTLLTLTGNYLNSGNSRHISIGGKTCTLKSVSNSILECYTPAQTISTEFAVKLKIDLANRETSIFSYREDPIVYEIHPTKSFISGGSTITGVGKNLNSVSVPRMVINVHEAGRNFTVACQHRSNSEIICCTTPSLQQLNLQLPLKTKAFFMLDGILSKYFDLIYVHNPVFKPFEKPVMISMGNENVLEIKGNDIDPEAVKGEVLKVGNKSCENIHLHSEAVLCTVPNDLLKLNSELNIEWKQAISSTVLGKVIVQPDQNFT

B1: Fab VH1-46_IGHD6-6*01_IGHJ1*01 S102A/S103P/S104F/H111F (APFF) & L6_IGKJ1*01 S30Q (Fab, V domains shown)
VH: QVQLVQSGAEVKKPGASVKVSCKASGYTFTSYYMHWVRQAPGQGLEWMGIINPSGGSTSYAQKFQGRVTMTRDTSTSTVYMELSSLRSEDTAVYYCAREEYAPFSAEYFQFWGQGTLVTVSS
VL: EIVLTQSPATLSLSPGERATLSCRASQSVQSYLAWYQQKPGQAPRLLIYDASNRATGIPARFSGSGSGTDFTLTISSLEPEDFAVYYCQQRSNWPPWTFGQGTKVEIKR
notes: Fab made in E. coli: VH cloned into Plasmid A (CH1, His6 and Flag tags), kappa VL into Plasmid C (kappa CL); also called APFF / S30Q
With B1 the ECL signal [1] was 197000, the ECL signal [2] was 344 and the ECL signal [3] was 411. The ECL signal [4] was 340, the ECL signal [5] was 376 and the ECL signal [6] was 393. For the same binder, the ECL signal [7] was 381, the ECL signal [8] was 326 and the ECL signal [9] was 354.

B2: Fab VH1-46_IGHD6-6*01_IGHJ1*01 S102A/S103P/S104F/H111F (APFF) & L6_IGKJ1*01 S30R (Fab, V domains shown)
VH: B1 VH
VL: B1 VL with Q30R
notes: Fab made in E. coli: VH cloned into Plasmid A (CH1, His6 and Flag tags), kappa VL into Plasmid C (kappa CL); also called APFF / S30R
B2 gave an ECL signal [10] of 189000, an ECL signal [11] of 452 and an ECL signal [12] of 472. It also gave an ECL signal [13] of 404, an ECL signal [14] of 525 and an ECL signal [15] of 442. It also gave an ECL signal [16] of 395, an ECL signal [17] of 313 and an ECL signal [18] of 422.

B3: Fab VH1-46_IGHD6-6*01_IGHJ1*01 S102A/S103P/S104F/H111F (APFF) & L6_IGKJ1*01 S30T (Fab, V domains shown)
VH: B1 VH
VL: B1 VL with Q30T
notes: Fab made in E. coli: VH cloned into Plasmid A (CH1, His6 and Flag tags), kappa VL into Plasmid C (kappa CL); also called APFF / S30T
Work on B3 yielded an ECL signal [19] of 136000, an ECL signal [20] of 320 and an ECL signal [21] of 521. The ECL signal [22] was 269, the ECL signal [23] was 470 and the ECL signal [24] was 418. It also gave an ECL signal [25] of 383, an ECL signal [26] of 375 and an ECL signal [27] of 401.

B4: Fab VH1-46_IGHD6-6*01_IGHJ1*01 S102A/S103P/S104F/H111F (APFF) & L6_IGKJ1*01 S30V (Fab, V domains shown)
VH: B1 VH
VL: B1 VL with Q30V
notes: Fab made in E. coli: VH cloned into Plasmid A (CH1, His6 and Flag tags), kappa VL into Plasmid C (kappa CL); also called APFF / S30V
B4 showed an ECL signal [28] of 141000, an ECL signal [29] of 394 and an ECL signal [30] of 375. It also gave an ECL signal [31] of 279, an ECL signal [32] of 536 and an ECL signal [33] of 333. The ECL signal [34] was 412, the ECL signal [35] was 294 and the ECL signal [36] was 365.

From patent US20120316071A1 (published 2012)
